What was measured:
[1] = test system: SC macrophage cells; test: SC macrophage trans-well migration towards ETP transfected MCF7 cells; format: cell-based, human; conditions: 10, 2, 0.4, 0.08 μg/mL antibody, 2 hr
Procedure: FIGS. 3A-D. Generation and screening of anti-human endotrophin. (FIG. 3A) MCF7 breast cancer cells (20,000 cells) were plated into a 96-well plate. Cells were then treated with 10 μm cisplatin, 10 μm cisplatin/100 ng/mL endotrophin, and 10 μm cisplatin/100 ng/mL endotrophin/10 μg/mL ETPmAb4 for 24 hr. Cell survival was measured using a CellTiter One Solution Cell Proliferation Assay. Statistical significance of the curve fit parameters was tested using the extra sum of squares F test with P<0.05 considered significant. Goodness of curve fit is described using r2. Mean±SEM, n=3. (FIG. 3B) ETP transfected MCF7 cells (100,000 cells) were plated into a 24-well plate with 500 μL media. Then 4 μL of supernatant was loaded for Western blotting. It is estimated that approximately 1 ng of ETP was loaded, compared with the standard ETP (2 ng band). The concentration yields approximately 0.052 pg secreted ETP/hr/cell. (FIG. 3C) Total RNA was extracted from MCF7, HCC1395, MDAMB231, ZR-75 and MDAMB453 cells. ETP expression was determined by qRT-PCR and normalized to GAPDH. […] Migrated cells were counted after a 2 hr incubation. In all cases, data was represented as mean±SD, and statistical significance (*** p<0.0001) was calculated using an unpaired Student's t-test.
Primary Culture of Human Cells and Transwell Assays. […] Migrated cells were then counted after 2 hr. […]

[2] = test system: ETP transfected MCF7 cells; test: ETP transfected MCF7 tumor growth in nude mice; format: in vivo
Procedure: FIGS. 5A-C. Antibody effects on ETP-MCF7 cells in vivo. (FIG. 5A) ETP transfected MCF7 cells (2×10^6 cells) were implanted into nude mice. An estradiol pellet (0.72 mg) was implanted into nude mice. Then (i) 20 mg/kg ETPmAb4, (ii) 10 mg/kg ETPmAb4 with 10 mg/kg control IgG, (iii) 5 mg/kg ETPmAb4 with 15 mg/kg control IgG, (iv) 2 mg/kg ETPmAb4 with 18 mg/kg control IgG, and (v) 20 mg/kg control IgG (twice a week) were injected after 10-days implantation for 5-weeks. Tumor volume was determined by caliper measurement. Data was represented as mean±SD (n=5/group), and *** p<0.0001 by ANOVA followed by Newman-Keuls multiple comparison test. (FIG. 5B) Total RNA was prepared from tumor tissues from ETP transfected MCF7, ETPmAb4 treatment mice. The EMT markers genes Twist, Snail, Cdh2 and Cdh 1 were determined by qRT-PCR, then normalized to GAPDH. E-CAD immunofluorescence staining for tumor tissues from ETP transfected MCF7 and ETPmAb4 treatment tumor. (FIG. 5C) MCF7 and ETP transfected MCF7 cells (2×10^6 cells) were implanted into nude mice. An estradiol pellet (0.72 mg) was implanted into nude mice. Then 20 mg/kg of antibody ETPmAb4 (twice a week), and 2.5 mg/kg of cisplatin (once a week) were injected after 10-days implantation for 6-weeks. Tumor volume was determined by caliper measurement. Data was represented as mean±SD (n=5/group), and *** p<0.0001 by ANOVA followed by Newman-Keuls multiple comparison test.
Animal experiments. NU/NU nude female mice were purchased from Charles River (Crl: NU-Foxnlnu; Strain Code 088 (Homozygous)). Breast cancer cells (2×10^6 cells) were implanted by intraductal injection. All cell lines were mixed on ice with 1×PBS and Matrigel. Then 100 μL of mixture was injected into mice. Tumors were measured twice a week, beginning 10 days after injection, and tumor volume was calculated by length×(width) 2/2 (mm^3).
Analysis of Tumor Progression. Tumor onset was monitored twice weekly by palpation. Tumor sizes were measured using a digital caliper twice weekly and the volumes were calculated as length× width2)/2. Inguinal tumors were weighted to determine tumor burden. Animals were sacrificed when the tumor burden visibly affected the host, or when the tumors reached the IACUC pre-determined limit of 20 mm along one axis.
As a next step, whether the anti-endotrophin antibodies effectively curb the aggressive tumor growth observed in endotrophin overexpressing MCF-7 cells was examined. To boost the growth rate of the tumor cells, these assays were performed in the presence of estradiol pellets. Cells (2×10^6 cells) were injected into nude mice and their tumor growth was monitored over time, based on a twice weekly injection of either a control monoclonal preparation, or ETPmAb4; in all cases, a total of 20 mg/kg of antibody was used. The dose dependence was tested by either injecting 20 mg/kg of control antibody, 20 mg/kg of ETPmAb4, or a mixture of the two with decreasing levels of control antibody mixed with increasing levels of ETPmAb4.
To test this, MCF7 cells were used with or without endotrophin overexpression, and the cells were transplanted into nude mice, in the presence of estradiol pellets (FIG. 5C). […] As expected, MCF7 cells harboring an excess in endotrophin grew very aggressively (FIG. 5C; red line).

B1: ETP-mAb4: rabbit monoclonal anti-human endotrophin antibody selected for further study; VH SEQ ID NO: 125, VL SEQ ID NO: 126 (antibody, V domains shown)
VH: SSRVKESGGDLVKPGASLTLTCKASGFSFSSGYYICWVRQAPGKGLEWIACIYGGNNNPYYANWVNGRFTTSKTSSTTVTLQMTNLTGADTATYFCARKDINIGGAYELWGPGTLVTISS
VL: ELVMTQTPASVSEPVGGTVTINCQASQSISSSYLSWYQQKPGQPPKLLIYKASTLASGVPSRFKGSGSGTQFSLTISDLECADAATYYCQYSDWANSYGNAFGGGTEVVVK
migration of SC macrophages into the bottom chamber [1]: effectively prevented the migration | lesion growth, combination with cisplatinum ([2]; 20 mg/kg ETPmAb4 twice a week plus 2.5 mg/kg cisplatin once a week): lesion growth was reduced down to essentially baseline | tumor growth at the highest dose ([2]; 20 mg/kg twice a week, estradiol pellet): almost completely curbing the aggressive tumor growth | rate of tumor growth ([2]; 2-20 mg/kg twice a week, estradiol pellet, vs control IgG): significantly reduced in a dose-dependent fashion the rate of tumor growth over time | EMT signature in tumor tissue (Twist, Snail, Cdh2, Cdh1 qPCR) ([2]; antibody-treated tumors): reduced EMT signature

From patent US12331110B2, “Monoclonal antibodies against endotrophin and the use thereof” (THE BOARD OF REGENTS OF THE UNIVERSITY OF TEXAS SYSTEM, priority 2018, dated 2025)
